Measured values: article PMC7655957 (2020)
Blank lines part the entries; values can stand above or below the binder they belong to.

What was measured:
[1] = target: MBP-LIC1FL, full-length dynein light intermediate chain-1 (human, UniProt Q9Y6G9 1-523); assay: ITC; 5 mM EGTA, 30 °C
[2] = target: T1, WT_(ZIP+)/WT_(ZIP−), BICD2_(1–98) heterodimer with C-terminal ZIP+/ZIP− leucine zipper (mouse (cDNA, methods); called human in …, UniProt Q921C5-1 1-98; Q921C5-1 1-98); assay: ITC; one-site binding model (rejected, poor fit)
T1 chain 1: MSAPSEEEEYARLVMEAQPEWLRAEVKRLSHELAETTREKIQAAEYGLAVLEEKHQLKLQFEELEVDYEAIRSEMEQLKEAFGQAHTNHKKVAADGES
T1 chain 2: T1 chain 1

Sequence of MBP-LIC1FL, full-length dynein light intermediate chain-1 (Q9Y6G9 whole entry): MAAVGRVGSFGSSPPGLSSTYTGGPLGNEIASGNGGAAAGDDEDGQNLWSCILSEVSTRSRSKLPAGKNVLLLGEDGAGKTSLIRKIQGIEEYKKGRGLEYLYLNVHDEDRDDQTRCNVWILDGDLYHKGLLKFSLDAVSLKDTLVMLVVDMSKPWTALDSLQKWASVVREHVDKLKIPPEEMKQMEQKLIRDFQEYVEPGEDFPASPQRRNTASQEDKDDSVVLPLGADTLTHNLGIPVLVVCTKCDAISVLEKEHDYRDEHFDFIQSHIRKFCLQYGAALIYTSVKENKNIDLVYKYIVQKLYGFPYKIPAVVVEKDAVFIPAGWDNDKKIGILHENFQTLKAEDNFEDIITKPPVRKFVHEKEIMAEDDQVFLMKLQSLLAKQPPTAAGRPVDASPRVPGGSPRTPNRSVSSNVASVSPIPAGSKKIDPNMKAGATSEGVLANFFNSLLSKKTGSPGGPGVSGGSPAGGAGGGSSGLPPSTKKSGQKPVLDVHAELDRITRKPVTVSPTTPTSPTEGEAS

Kd [1]: 15.5 µM
B1: NIN_(1–87), first EF-hand pair of Ninein (domain or fragment)
chain: MDEVEQDQHEARLKELFDSFDTTGTGSLGQEELTDLCHMLSLEEVAPVLQQTLLQDNLLGRVHFDQFKEALILILSRTLSNEEHFQE

Kd [1]: 3.1 µM
B2: FIP3_(206–270), EF-hand pair of Rab11 family-interacting protein 3 (domain or fragment)
chain: RLRAVFDALDGDGDGFVRIEDFIQFATVYGAEQVKDLTKYLDPSGLGVISFEDFYQGITAIRNGD

Kd [2]: 3 µM
B3: LIC1_(433–458), amphipathic helix of the dynein light intermediate chain-1 (peptide)
peptide: NMKAGATSEGVLANFFNSLLSKKTGS
